Experimental data from US20040248785A1.

Key:
[1] = biological target: low density lipoprotein receptor-related protein / alpha2-macroglobulin receptor (LRP), isolated from human placenta (human) (UniProt Q07954); assay: solid-phase homologous ligand displacement: 125I-fVIII (1 nM) on LRP-coated wells, 1 h at 37 C, rising unlabeled fVIII
[2] = biological target: low density lipoprotein receptor-related protein / alpha2-macroglobulin receptor (LRP), isolated from human placenta (human) (UniProt Q07954); assay: homologous displacement of 125I-fVIII (1 nM) by unlabeled fVIII on LRP-coated wells, single class of sites, LIGAND
[3] = biological target: low density lipoprotein receptor-related protein / alpha2-macroglobulin receptor (LRP), isolated from human placenta (human) (UniProt Q07954); assay: homologous displacement on LRP-coated wells

Chain of low density lipoprotein receptor-related protein / alpha2-macroglobulin receptor (LRP), isolated from human placenta (human) (Q07954 20-4544): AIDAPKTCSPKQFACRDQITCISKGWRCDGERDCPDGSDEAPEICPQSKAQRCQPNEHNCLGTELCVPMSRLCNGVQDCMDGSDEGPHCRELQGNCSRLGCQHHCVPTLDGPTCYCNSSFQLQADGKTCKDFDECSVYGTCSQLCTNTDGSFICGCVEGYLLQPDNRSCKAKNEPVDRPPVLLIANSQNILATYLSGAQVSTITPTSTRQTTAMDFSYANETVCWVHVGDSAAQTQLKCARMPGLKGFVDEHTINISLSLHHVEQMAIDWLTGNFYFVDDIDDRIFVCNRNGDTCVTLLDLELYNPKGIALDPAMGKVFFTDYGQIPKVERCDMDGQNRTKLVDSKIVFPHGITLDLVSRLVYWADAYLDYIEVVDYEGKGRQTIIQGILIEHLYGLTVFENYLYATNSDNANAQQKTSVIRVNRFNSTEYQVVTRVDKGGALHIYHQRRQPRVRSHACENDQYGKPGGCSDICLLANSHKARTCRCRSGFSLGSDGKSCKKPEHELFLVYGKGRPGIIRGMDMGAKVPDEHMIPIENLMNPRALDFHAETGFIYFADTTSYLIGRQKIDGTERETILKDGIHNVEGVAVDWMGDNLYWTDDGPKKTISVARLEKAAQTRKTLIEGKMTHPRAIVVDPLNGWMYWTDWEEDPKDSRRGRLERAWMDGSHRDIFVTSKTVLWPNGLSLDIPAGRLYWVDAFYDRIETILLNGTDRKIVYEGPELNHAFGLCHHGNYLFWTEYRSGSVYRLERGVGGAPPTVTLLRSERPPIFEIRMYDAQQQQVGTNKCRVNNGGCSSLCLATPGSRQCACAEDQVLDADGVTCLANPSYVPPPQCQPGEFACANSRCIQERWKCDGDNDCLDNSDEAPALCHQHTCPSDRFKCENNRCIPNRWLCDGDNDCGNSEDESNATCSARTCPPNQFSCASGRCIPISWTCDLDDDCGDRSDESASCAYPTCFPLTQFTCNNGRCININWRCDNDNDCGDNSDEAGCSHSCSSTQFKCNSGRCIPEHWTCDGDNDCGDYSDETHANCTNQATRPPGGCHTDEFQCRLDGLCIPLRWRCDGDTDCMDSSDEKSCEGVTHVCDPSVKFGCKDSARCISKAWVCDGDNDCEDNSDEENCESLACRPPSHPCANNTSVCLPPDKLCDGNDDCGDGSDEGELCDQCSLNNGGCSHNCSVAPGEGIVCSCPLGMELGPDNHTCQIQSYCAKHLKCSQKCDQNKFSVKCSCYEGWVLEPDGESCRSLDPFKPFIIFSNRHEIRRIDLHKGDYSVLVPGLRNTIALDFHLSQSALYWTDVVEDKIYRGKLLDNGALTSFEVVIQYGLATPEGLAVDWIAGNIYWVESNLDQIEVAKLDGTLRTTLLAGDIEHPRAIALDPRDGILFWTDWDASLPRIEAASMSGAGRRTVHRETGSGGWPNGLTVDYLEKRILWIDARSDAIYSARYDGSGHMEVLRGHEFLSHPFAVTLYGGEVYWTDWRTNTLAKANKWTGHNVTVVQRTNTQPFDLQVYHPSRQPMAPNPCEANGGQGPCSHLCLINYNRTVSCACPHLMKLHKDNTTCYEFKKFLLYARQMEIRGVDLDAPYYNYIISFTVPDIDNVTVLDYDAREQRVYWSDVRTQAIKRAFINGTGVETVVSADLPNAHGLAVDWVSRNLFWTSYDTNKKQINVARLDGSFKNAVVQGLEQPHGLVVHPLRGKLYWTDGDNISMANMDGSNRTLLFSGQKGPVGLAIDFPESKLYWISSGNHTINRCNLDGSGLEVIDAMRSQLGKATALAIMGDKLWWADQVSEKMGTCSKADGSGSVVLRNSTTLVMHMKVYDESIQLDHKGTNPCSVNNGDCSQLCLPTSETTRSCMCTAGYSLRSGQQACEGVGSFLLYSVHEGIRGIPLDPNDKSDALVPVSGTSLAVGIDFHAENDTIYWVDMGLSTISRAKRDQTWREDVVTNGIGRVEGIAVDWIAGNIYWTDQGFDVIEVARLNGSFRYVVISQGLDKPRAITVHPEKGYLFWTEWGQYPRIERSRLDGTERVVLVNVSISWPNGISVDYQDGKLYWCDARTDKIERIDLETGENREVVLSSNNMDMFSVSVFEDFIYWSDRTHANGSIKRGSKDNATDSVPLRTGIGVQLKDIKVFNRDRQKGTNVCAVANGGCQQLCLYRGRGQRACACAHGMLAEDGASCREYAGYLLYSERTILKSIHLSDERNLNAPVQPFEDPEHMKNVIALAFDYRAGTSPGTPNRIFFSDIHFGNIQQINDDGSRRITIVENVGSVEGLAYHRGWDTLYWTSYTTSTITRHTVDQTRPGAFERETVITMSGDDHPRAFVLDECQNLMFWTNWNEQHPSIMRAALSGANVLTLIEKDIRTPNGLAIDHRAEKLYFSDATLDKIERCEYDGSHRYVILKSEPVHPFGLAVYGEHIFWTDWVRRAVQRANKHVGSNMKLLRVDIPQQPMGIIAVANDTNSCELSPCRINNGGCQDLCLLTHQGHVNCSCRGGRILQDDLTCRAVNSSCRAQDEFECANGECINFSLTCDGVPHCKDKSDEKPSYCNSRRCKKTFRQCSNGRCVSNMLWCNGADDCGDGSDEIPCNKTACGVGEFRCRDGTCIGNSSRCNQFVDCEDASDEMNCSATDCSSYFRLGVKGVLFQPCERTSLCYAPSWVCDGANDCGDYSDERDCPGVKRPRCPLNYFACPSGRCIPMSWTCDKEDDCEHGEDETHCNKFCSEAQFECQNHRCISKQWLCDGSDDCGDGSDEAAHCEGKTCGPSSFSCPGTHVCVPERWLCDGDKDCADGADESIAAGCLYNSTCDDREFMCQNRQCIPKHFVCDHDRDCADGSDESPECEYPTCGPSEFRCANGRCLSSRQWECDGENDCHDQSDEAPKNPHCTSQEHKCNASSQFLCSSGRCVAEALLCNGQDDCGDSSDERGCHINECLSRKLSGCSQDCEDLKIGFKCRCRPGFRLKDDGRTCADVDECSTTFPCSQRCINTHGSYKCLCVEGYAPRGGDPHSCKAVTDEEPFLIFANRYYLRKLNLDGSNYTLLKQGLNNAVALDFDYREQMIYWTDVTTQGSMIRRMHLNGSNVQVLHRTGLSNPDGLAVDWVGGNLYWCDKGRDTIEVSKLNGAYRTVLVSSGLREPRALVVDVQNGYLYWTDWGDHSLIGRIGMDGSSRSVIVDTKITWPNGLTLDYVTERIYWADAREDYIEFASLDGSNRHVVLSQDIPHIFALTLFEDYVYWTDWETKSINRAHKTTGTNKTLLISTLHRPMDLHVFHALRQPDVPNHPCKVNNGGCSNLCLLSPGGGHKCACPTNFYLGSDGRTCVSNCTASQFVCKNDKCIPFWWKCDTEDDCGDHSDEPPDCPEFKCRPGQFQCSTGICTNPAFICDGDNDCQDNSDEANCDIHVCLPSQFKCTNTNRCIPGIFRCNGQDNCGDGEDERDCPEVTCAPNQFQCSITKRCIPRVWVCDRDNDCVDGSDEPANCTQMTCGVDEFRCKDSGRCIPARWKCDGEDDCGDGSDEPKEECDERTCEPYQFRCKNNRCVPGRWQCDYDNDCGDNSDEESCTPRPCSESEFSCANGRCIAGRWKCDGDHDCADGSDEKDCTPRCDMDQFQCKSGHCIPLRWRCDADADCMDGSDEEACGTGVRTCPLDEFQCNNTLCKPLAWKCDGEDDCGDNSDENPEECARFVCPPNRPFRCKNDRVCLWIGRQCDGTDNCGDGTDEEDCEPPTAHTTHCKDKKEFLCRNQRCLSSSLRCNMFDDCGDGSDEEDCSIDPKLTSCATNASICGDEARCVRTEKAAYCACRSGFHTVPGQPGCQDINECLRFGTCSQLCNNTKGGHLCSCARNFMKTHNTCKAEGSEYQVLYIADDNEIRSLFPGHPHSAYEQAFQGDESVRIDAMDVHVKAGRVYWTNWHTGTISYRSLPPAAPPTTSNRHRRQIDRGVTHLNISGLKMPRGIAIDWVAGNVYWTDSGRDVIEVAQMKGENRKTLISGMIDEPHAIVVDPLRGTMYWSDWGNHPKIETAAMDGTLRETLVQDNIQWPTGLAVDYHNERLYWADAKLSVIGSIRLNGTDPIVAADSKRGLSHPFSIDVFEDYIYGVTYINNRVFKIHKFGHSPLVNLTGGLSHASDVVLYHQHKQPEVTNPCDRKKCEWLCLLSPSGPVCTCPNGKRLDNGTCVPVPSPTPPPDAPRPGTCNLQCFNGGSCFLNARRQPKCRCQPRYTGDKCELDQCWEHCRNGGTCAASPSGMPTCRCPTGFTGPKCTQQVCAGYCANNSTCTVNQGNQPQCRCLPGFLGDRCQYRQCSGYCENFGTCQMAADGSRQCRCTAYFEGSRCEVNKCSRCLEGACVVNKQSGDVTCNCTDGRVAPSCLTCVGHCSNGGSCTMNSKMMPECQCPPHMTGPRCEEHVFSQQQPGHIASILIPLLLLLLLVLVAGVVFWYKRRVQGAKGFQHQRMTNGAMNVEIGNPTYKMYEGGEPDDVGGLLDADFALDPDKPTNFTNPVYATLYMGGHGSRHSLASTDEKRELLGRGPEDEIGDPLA

IC50 (read off the curve) [1]: 100 nM | Kd [2]: 116 nM | percent of 125I-fVIII binding competed by an excess of unlabeled fVIII [3]: > 90%
Substance: factor VIII (fVIII), purified from therapeutic concentrates of Method M, American Red Cross, P00451 20-1667; P00451 1668-2351
